Changes are numbered by the printed parent chain. Numbers in names are those of the source. Blank lines part the entries; values can stand above or below the molecule they belong to.
Target: IGF2 (Homo sapiens, UniProt P01344)
Test: SPR (Biacore T200) of recombinant IGF2R domain 11 mutants on immobilised biotinylated IGF2
Type: binding
Design: purchased GroPep
Text: Surface plasmon resonance (SPR) binding analysis of recombinant M6P/IGF2R domain 11 mutants interaction with IGF2. Kon indicates association (on) rate; koff, dissociation (off) rate; RU, response units. Binding to IGF2 assessed with BIAcore T200 using purified biotinylated IGF2 and IGF1 on a streptavidin biosensor chip. Recombinant proteins were expressed either in E. coli and/or P. pastoris. All the mutants in the FG and CD loops are on the domain 11^AB5 background for the AB loop unless otherwise stated. All experiments were carried out at 25° C. in HBS-EP buffer (pH 7.4), were repeated 2-5 times on two independent BIAcore chips. nd=not determined. Data for KD expressed as mean of each experiment, and means of kon and koff are shown.
Measurements were carried out at 25° C. in HBS-EP buffer (pH 7.4) (nd=not determined, np=no protein). Data for KD expressed as mean of each experiment, and means of kon and koff are shown.
Measurements were carried out at 25° C. in MES-EP buffer, 20 mM MES pH 6.5, 150 mM NaCl, 3 mM EDTA, and 0.005% (v/v) surfactant P20). Data for KD expressed as mean of each experiment, and means of kon and koff are shown.
Final kinetic analysis of mutants by SPR was conducted using a Biacore T200 biosensor at 25° C. in either HBS-EP (10 mM HEPES pH 7.4, 150 mM NaCl, 3 mM EDTA, and 0.005% (v/v) surfactant P20) or MES-EP (20 mM MES pH 6.5, 150 mM NaCl, 3 mM EDTA, and 0.005% (v/v) surfactant P20) at a flow-rate of 40 μL min^−1. […] For the analysis of the Fc-domain 11^AB5 interaction, approximately 50 RU of a biotinylated IGF2:biotinylated ubiquitin mixture (1:8 proportion) was immobilized on the CM5-streptavidin chip. This interaction was also analysed by immobilizing the Fc-domain 11^AB5 and Fc-domain 11^AB5-RHH (or Fc-domain 11^I1572A as control) by Human Antibody Capture (monoclonal mouse anti-human IgG antibody immobilised on a CM5 chip by amine coupling, GE Healthcare) with and without human IgG1 Fc fragment (Bethyl Laboratories, UK) in the control flow cell. Increasing concentrations of IGF2^1-67, proIGF2^1-104, proIGF2^1-156 and IGF1 ranging from 0.125 to 32 nM were injected. T200 BiaEvaluation software (GE Healthcare) was used to fit the resulting curves according to a 1:1 binding model. Steady state affinities were determined using the kinetic data, taking the response average at 5 seconds before injection end and for 5 seconds average. Thermodynamic data was performed across the temperature range of 10° C. to 30° C., van't Hoff and Erying plots generated and ΔH, −TΔS and ΔG values determined as previously described.

Chain of IGF2 (P01344 25-91): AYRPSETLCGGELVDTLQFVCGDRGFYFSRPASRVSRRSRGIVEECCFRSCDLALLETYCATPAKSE

Kinetics koff (Table 1, 25° C., HBS-EP pH 7.4): 0.0191 s⁻¹
Kinetics kon (Table 1, 25° C., HBS-EP pH 7.4): 5.88e+06 M⁻¹ s⁻¹
B1: S1602Q: domain 11 AB5 background + FG loop S1602Q (protein)
chain: MKSNEHDDCQVTNPSTGHLFDLSSLSGRAGFTAAYAKGWGVYMSICGENENCPPGVGACFGQTRISVGKANKRLRYVDQVLQLVYKDGSPCPSKQGLSYKSVISFVCRPEAGPTNRPMLISLDKQTCTLFFSWHTPLACEQATECSV

Kinetics koff (Table 2): 0.10 s⁻¹
Kinetics kon (Table 2): 7.4e+06 M⁻¹ s⁻¹
B2: AB5 + 51F (HI-NRQS): domain 11 AB5 with HI loop NRQS (clone 51F) (protein)
chain: B1 chain with Q95S, D123N, K124R, T126S

Kinetics koff (Table 2): 0.065 s⁻¹
Kinetics kon (Table 2): 250000 M⁻¹ s⁻¹
B3: WT + 23D (HI-HFQS): wild-type domain 11 with HI loop 1630-1633 HFQS (clone 23D) (protein)
chain: B1 chain with A36S, K37E, G38K, W39G, G40L, Q95S, D123H, K124F, T126S

Kinetics koff (Table 2): 0.013 s⁻¹
Kinetics kon (Table 2): 1.06e+07 M⁻¹ s⁻¹
Kinetics koff (Table 3, 25° C., HBS-EP pH 7.4): 0.013 s⁻¹
Kinetics kon (Table 3, 25° C., HBS-EP pH 7.4): 1.06e+07 M⁻¹ s⁻¹
B4: AB3 P1597H: domain 11 AB3 + FG loop P1597H (protein)
chain: B1 chain with A36S, G38S, W39G, G40V, P90H, Q95S

Kinetics koff (Table 1, 25° C., HBS-EP pH 7.4): 0.0196 s⁻¹
Kinetics kon (Table 1, 25° C., HBS-EP pH 7.4): 800000 M⁻¹ s⁻¹
B5: T1633A: domain 11 HI loop mutant T1633A, probably AB5 background (protein)
chain: B1 chain with Q95S, T126A

Kinetics koff (Table 1, 25° C., HBS-EP pH 7.4): 0.0167 s⁻¹
Kinetics kon (Table 1, 25° C., HBS-EP pH 7.4): 4.5e+06 M⁻¹ s⁻¹
B6: Q1632A: domain 11 HI loop mutant Q1632A, probably AB5 background (protein)
chain: B1 chain with Q95S, Q125A

Kinetics koff (Table 3, 25° C., HBS-EP pH 7.4): 0.0241 s⁻¹
Kinetics kon (Table 3, 25° C., HBS-EP pH 7.4): 2e+07 M⁻¹ s⁻¹
B7: AB3 Q1569R P1597K: domain 11 AB3 + Q1569R, P1597K (protein)
chain: B1 chain with A36S, G38S, W39G, G40V, Q62R, P90K, Q95S

Kinetics koff (Table 2): 0.031 s⁻¹
Kinetics kon (Table 2): 1.36e+07 M⁻¹ s⁻¹
Kinetics koff (Table 3, 25° C., HBS-EP pH 7.4): 0.031 s⁻¹
Kinetics kon (Table 3, 25° C., HBS-EP pH 7.4): 1.36e+07 M⁻¹ s⁻¹
B8: AB3 Q1569R: domain 11 AB3 + CD loop Q1569R (protein)
chain: B1 chain with A36S, G38S, W39G, G40V, Q62R, Q95S

Kinetics koff (Table 2): 0.25 s⁻¹
Kinetics kon (Table 2): 2e+06 M⁻¹ s⁻¹
B9: WT + 27G (HI-NMAL): wild-type domain 11 with HI loop NMAL (clone 27G) (protein)
chain: B1 chain with A36S, K37E, G38K, W39G, G40L, Q95S, D123N, K124M, Q125A, T126L

Kinetics koff (Table 1, 25° C., HBS-EP pH 7.4): 0.0202 s⁻¹
Kinetics kon (Table 1, 25° C., HBS-EP pH 7.4): 520000 M⁻¹ s⁻¹
B10: Q1632E: domain 11 HI loop mutant Q1632E, probably AB5 background (protein)
chain: B1 chain with Q95S, Q125E

Kinetics koff (Table 1, 25° C., HBS-EP pH 7.4): 0.0212 s⁻¹
Kinetics kon (Table 1, 25° C., HBS-EP pH 7.4): 1.96e+06 M⁻¹ s⁻¹
B11: Q1632K: domain 11 HI loop mutant Q1632K, probably AB5 background (protein)
chain: B1 chain with Q95S, Q125K

Kinetics koff (Table 1, 25° C., HBS-EP pH 7.4): 0.0183 s⁻¹
Kinetics kon (Table 1, 25° C., HBS-EP pH 7.4): 2.14e+06 M⁻¹ s⁻¹
B12: G1603A: domain 11 AB5 background + FG loop G1603A (protein)
chain: B1 chain with Q95S, G96A

Kinetics koff (Table 1, 25° C., HBS-EP pH 7.4): 0.0397 s⁻¹
Kinetics kon (Table 1, 25° C., HBS-EP pH 7.4): 790000 M⁻¹ s⁻¹
B13: L1604A: domain 11 AB5 background + FG loop L1604A (protein)
chain: B1 chain with Q95S, L97A

Kinetics koff (Table 3, 25° C., HBS-EP pH 7.4): 0.0102 s⁻¹
Kinetics kon (Table 3, 25° C., HBS-EP pH 7.4): 2.74e+06 M⁻¹ s⁻¹
B14: AB3 P1597K S1602H: domain 11 AB3 + P1597K, S1602H (protein)
chain: B1 chain with A36S, G38S, W39G, G40V, P90K, Q95H

Kinetics koff (Table 1, 25° C., HBS-EP pH 7.4): 0.0867 s⁻¹
Kinetics kon (Table 1, 25° C., HBS-EP pH 7.4): 7.18e+06 M⁻¹ s⁻¹
B15: K1631R: domain 11 HI loop mutant K1631R, probably AB5 background (protein)
chain: B1 chain with Q95S, K124R

Kinetics koff (Table 1, 25° C., HBS-EP pH 7.4): 0.0180 s⁻¹
Kinetics kon (Table 1, 25° C., HBS-EP pH 7.4): 4.5e+06 M⁻¹ s⁻¹
B16: W1546F: domain 11 AB5 with W1546F in the AB loop (protein)
chain: B1 chain with W39F, Q95S

Kinetics koff (Table 2): 0.24 s⁻¹
Kinetics kon (Table 2): 1.89e+06 M⁻¹ s⁻¹
B17: WT + 26C (HI-DMQT): wild-type domain 11 with HI loop DMQT (clone 26C) (protein)
chain: B1 chain with A36S, K37E, G38K, W39G, G40L, Q95S, K124M

Kinetics koff (Table 3, 25° C., HBS-EP pH 7.4): 0.0287 s⁻¹
Kinetics kon (Table 3, 25° C., HBS-EP pH 7.4): 1.05e+07 M⁻¹ s⁻¹
B18: AB3 P1597K: domain 11 AB3 + FG loop P1597K (protein)
chain: B1 chain with A36S, G38S, W39G, G40V, P90K, Q95S

Kinetics koff (Table 1, 25° C., HBS-EP pH 7.4): 0.0175 s⁻¹
Kinetics kon (Table 1, 25° C., HBS-EP pH 7.4): 3.18e+06 M⁻¹ s⁻¹
B19: Q1632L: domain 11 HI loop mutant Q1632L, probably AB5 background (protein)
chain: B1 chain with Q95S, Q125L

Kinetics koff (Table 1, 25° C., HBS-EP pH 7.4): >0.1 s⁻¹
B20: K1631E: domain 11 HI loop mutant K1631E, probably AB5 background (protein)
chain: B1 chain with Q95S, K124E

Kinetics koff (Table 3, 25° C., HBS-EP pH 7.4): 0.012 s⁻¹
B21: AB3 P1597H HI^23D: domain 11 AB3 + P1597H + HI loop of clone 23D (HFQS) (protein)
chain: B1 chain with A36S, G38S, W39G, G40V, P90H, Q95S, D123H, K124F, T126S

Kinetics koff (Table 3, 25° C., HBS-EP pH 7.4): 0.3478 s⁻¹
Kinetics kon (Table 3, 25° C., HBS-EP pH 7.4): 1.97e+07 M⁻¹ s⁻¹
B22: AB3 P1597H K1631W: domain 11 AB3 + P1597H, K1631W (protein)
chain: B1 chain with A36S, G38S, W39G, G40V, P90H, Q95S, K124W

Kinetics koff (Table 3, 25° C., HBS-EP pH 7.4): 0.0153 s⁻¹
Kinetics kon (Table 3, 25° C., HBS-EP pH 7.4): 1.89e+07 M⁻¹ s⁻¹
Kinetics koff (Table 4, MES-EP pH 6.5): 0.0091 s⁻¹
Kinetics kon (Table 4, MES-EP pH 6.5): 1.99e+07 M⁻¹ s⁻¹
B23: AB3 Q1569R P1597H: domain 11 AB3 + Q1569R, P1597H (protein)
chain: B1 chain with A36S, G38S, W39G, G40V, Q62R, P90H, Q95S

Kinetics koff (Table 1, 25° C., HBS-EP pH 7.4): 0.0121 s⁻¹
Kinetics kon (Table 1, 25° C., HBS-EP pH 7.4): 4.66e+06 M⁻¹ s⁻¹
B24: G1603K: domain 11 AB5 background + FG loop G1603K (protein)
chain: B1 chain with Q95S, G96K

Kinetics koff (Table 2): 0.15 s⁻¹
Kinetics kon (Table 2): 1.07e+06 M⁻¹ s⁻¹
B25: WT + 312G (HI-VKLM): wild-type domain 11 with HI loop VKLM (clone 312G) (protein)
chain: B1 chain with A36S, K37E, G38K, W39G, G40L, Q95S, D123V, Q125L, T126M
